Laboratory results published in patent US20070110757A1.
Substitutions are numbered along the chain they refer to.

B1: A4B4 Fab fragment (Fab, V domains shown)
VH: QVTLRESGPALVKPTQTLTLTCTFSGFSLSTAGMSVGWIRQPPGKALEWLADIWWDDKKHYNPSLKDRLTISKDTSKNQVVLKVTNMDPADTATYYCARDMIFNFYFDVWGQGTTVTVSS
VL: DIQMTQSPSTLSASVGDRVTITCSASSRVGYMHWYQQKPGKAPKLLIYDTFFLDSGVPSRFSGSGSGTEFTLTISSLQPDDFATYYCFQGSGYPFTFGGGTKVEIK
B2: A13a11 Fab fragment (Fab, V domains shown)
VH: B1 VH with F105W
VL: B1 VL with A25P, F51Y, F52R, L53H, D54S
B3: A1h5 Fab fragment (Fab, V domains shown)
VH: B1 VH with D57G, F105W
VL: B1 VL with A25L, R28S, L53H, D54R

Biological target: RSV F protein on respiratory syncytial virus (RSV-Long strain) (respiratory syncytial virus (Long strain)) (UniProt P12568)
Assay: cell-based or functional assay

Sequence of RSV F protein on respiratory syncytial virus (RSV-Long strain) (respiratory syncytial virus (Long strain)) (P12568 26-574): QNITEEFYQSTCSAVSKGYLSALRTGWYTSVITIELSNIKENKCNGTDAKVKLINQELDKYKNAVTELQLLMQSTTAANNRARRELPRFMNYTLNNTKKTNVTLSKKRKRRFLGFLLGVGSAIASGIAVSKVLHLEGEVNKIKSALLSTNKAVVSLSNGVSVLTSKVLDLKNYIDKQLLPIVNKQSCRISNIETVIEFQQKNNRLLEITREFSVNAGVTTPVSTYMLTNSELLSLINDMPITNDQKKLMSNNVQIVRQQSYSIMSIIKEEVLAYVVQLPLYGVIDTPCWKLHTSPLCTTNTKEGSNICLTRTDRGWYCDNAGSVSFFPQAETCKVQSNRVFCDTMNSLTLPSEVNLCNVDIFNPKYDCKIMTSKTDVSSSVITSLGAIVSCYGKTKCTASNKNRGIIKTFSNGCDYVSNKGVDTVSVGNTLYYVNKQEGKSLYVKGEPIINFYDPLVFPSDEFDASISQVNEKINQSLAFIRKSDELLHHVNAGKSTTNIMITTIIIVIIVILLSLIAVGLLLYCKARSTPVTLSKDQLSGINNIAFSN

| Binder | Fold Difference (Control IC50) | Fold Difference (Curve IC50) | Mean IC50 (Control), RSV microneutralization | Mean IC50 (Curve), RSV microneutralization |
| --- | --- | --- | --- | --- |
| B1 | 13 fold | 11 fold | 0.0411 µg/mL | 0.0414 µg/mL |
| B2 | 5 fold | 4 fold | 0.102 µg/mL | 0.12 µg/mL |
| B3 | 3 fold | 2 fold | 0.176 µg/mL | 0.194 µg/mL |
